{"source": "patent US20260151389A1", "about": "“Use of Tetramethylpyrazine Nitrone Derivatives In The Treatment of Ischemic Stroke” (GUANGZHOU MAGPIE PHARMACEUTICALS CO., L.T.D., priority 2021, published 2026)", "system": "patients with acute ischemic stroke", "assay": "multicenter, randomized, double-blind, parallel clinical trial in acute ischemic stroke", "assay_type": "in vivo, human", "settings": "thrombolytic group", "excerpt": "The present invention adopts a multicenter, randomized, double-blind, parallel trial clinical research design. The patients with acute ischemic stroke included in the clinical trial-center as subjects (all signed informed consent forms) were divided into non-thrombolytic group and thrombolytic group. The non-thrombolytic group consists of the saline group and the TBN group. The thrombolytic group consists of the t-PA group and the combination group of TBN+t-PA.\nSubjects of the tests: Patients diagnosed with acute ischemic stroke were selected by clinical trial centers based on the diagnostic criteria of “Chinese Guidelines for the Diagnosis and Treatment of Acute Ischemic Stroke (2018)”.\nAdministration method: TBN (1400 mg) is dissolved in a sodium chloride injection bag (specification: 100 mL) and administered intravenously for 30 minutes. Dose of t-PA: 0.9 mg/Kg/dose; usage: added to physiological saline, 10% of the dose is administered via injected intravenous injection immediately within 1-2 minutes, and the remaining 90% is administered via intravenous drop infusion within 60 minutes. t-PA is administered only once on the first day of acute ischemic stroke. The medication schedule of TBN: D1-D7 administered twice a day, with an interval of 12 hours, for 7 consecutive days.", "data": [{"molecule": "t-PA: tissue type plasminogen activator ateplase (t-PA), thrombolytic drug (protein, UniProt P00750 36-562, looked up) Tissue-type plasminogen …: SYQVICRDEKTQMIYQQHQSWLRPVLRSNRVEYCWCNSGRAQCHSVPVKSCSEPRCFNGGTCQQALYFSDFVCQCPEGFAGKCCEIDTRATCYEDQGISYRGTWSTAESGAECTNWNSSALAQKPYSGRRPDAIRLGLGNHNYCRNPDRDSKPWCYVFKAGKYSSEFCSTPACSEGNSDCYFGNGSAYRGTHSLTESGASCLPWNSMILIGKVYTAQNPSAQALGLGKHNYCRNPDGDAKPWCHVLKNRRLTWEYCDVPSCSTCGLRQYSQPQFRIKGGLFADIASHPWQAAIFAKHRRSPGERFLCGGILISSCWILSAAHCFQERFPPHHLTVILGRTYRVVPGEEEQKFEVEKYIVHKEFDDDTYDNDIALLQLKSDSSRCAQESSVVRTVCLPPADLQLPDWTECELSGYGKHEALSPFYSERLKEAHVRLYPSSRCTSQHLLNRTVTDNMLCAGDTRSGGPQANLHDACQGDSGGPLVCLNDGRMTLVGIISWGLGCGQKDVPGVYTKVTNYLDWIRDNMRP", "values": [{"measurement": "efficacy after 90 days compared with after 30 days of treatment", "result": "no significant difference in efficacy"}, {"measurement": "Lsmeans mRS", "setting": "90th day", "result": 1.61}]}]}
